According to paper PMC6323126, “Architecture, substructures, and dynamic assembly of STRIPAK complexes in Hippo signaling” (Cell Discovery, 2019):

Assays:
MST4 (recombinant) = target: T1, MST4 (recombinant) (human, UniProt Q9P289 1-416); assay: pull-down; pulldown with purified recombinant proteins shown in supplementary figures; whether GST or MBP and who carried the tag not told; settings: both partners purified
T1 construct: MST4 (STK26), human; also called STK26; source: E. coli BL21 (DE3) CodonPlus, purified

[1] = target: T2, MST4 kinase domain (residues 1–300) (human, UniProt Q9P289 1-300); assay: as above; settings: both partners purified
T2 construct: MST4 (STK26), human, residues 1-300; also called N-terminal kinase domain of MST4; source: E. coli BL21 (DE3) CodonPlus, purified

[2] = target: T3, MST2 (recombinant, wildtype) (human, UniProt Q13188 1-491); assay: as above; settings: both partners purified
T3 construct: MST2 (STK3), human; also called STK3; Hippo kinase MST2; source: E. coli BL21 (DE3) CodonPlus, purified
T3 sequence (looked up): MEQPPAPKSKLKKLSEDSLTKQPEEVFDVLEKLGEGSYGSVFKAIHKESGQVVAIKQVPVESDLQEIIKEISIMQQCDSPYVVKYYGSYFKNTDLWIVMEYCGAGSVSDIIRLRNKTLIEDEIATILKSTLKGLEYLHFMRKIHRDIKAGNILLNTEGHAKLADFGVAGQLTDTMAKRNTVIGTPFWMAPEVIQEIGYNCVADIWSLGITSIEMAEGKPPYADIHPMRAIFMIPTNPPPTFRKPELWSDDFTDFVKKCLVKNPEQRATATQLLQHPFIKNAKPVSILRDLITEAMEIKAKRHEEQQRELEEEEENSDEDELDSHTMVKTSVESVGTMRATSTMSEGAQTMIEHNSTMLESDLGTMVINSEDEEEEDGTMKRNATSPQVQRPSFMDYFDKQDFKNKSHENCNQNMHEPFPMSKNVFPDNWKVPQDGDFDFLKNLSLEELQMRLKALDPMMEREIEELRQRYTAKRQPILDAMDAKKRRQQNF

[3] = target: T4, MST2 kinase domain (residues 1–308) (human, UniProt Q13188 1-308); assay: pull-down; GST pulldown: GST-tagged protein, partner and glutathione Sepharose mixed at 4 °C for 1 h in 20 mM HEPES (pH 7.5), 100 mM NaCl; eluted with 20 mM reduced glutathione; SDS-PAGE, Coomassie staining; settings: both partners purified
T4 construct: also called kinase domain of MST2; source: E. coli BL21 (DE3) CodonPlus, purified
T4 sequence (looked up): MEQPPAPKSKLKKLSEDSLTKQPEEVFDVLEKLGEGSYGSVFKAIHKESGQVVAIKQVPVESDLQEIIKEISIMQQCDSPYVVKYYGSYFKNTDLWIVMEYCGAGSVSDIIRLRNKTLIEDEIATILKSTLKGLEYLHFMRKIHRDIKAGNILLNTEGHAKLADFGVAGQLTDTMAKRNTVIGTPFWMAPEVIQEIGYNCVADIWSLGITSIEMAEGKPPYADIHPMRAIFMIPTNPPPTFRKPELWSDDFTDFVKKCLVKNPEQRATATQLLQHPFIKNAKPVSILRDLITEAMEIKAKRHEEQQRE

[4] = target: T5, SIKE1 CC1 (residues 5–65) (human, UniProt Q9BRV8 5-65); assay: not stated; Kd of the minimal regions, Supplementary Fig. S7c; method not given; settings: both partners purified
T5 construct: SIKE1, human, residues 5-65; Homodimer within the 2:2 crystal complex; also called residues 5–65 of SIKE1; source: E. coli BL21 (DE3) CodonPlus, purified
T5 sequence (looked up): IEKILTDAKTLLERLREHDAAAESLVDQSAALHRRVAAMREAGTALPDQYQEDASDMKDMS

[5] = target: T5, SIKE1 CC1 (residues 5–65); assay: crystal structure; SIKE1 CC1-SLMAP CC1 complex reconstituted 1:1 and gel-filtered, 2.3 Å; 0.1 M sodium citrate (pH 5.5), 15% PEG 6000, 16 °C; settings: both partners purified
[6] = target: the molecule itself; assay: as above

T2 sequence (Q9P289 1-300): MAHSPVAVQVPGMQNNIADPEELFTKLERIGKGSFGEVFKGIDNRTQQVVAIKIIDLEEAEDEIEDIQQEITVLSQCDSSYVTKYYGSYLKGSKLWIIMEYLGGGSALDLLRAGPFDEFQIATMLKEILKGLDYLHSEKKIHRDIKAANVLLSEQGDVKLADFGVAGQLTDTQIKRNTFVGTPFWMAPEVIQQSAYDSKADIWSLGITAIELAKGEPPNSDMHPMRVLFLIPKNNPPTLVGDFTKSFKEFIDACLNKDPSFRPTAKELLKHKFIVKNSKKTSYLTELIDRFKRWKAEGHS
T1 sequence (Q9P289 whole entry): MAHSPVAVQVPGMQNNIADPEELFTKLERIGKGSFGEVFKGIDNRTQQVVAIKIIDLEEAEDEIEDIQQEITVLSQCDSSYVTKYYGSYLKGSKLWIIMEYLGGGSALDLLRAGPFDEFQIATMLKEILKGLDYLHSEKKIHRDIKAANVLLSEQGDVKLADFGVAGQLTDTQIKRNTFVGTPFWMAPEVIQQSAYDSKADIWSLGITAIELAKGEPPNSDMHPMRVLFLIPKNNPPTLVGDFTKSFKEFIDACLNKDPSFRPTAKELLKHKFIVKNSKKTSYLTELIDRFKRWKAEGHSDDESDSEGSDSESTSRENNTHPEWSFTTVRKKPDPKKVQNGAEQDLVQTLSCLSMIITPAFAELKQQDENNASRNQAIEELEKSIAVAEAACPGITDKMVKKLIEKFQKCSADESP

Binder	binding result (MST4 (recombinant))	binding result [1]	binding result [2]	binding result [3]	Kd [4] [µM]	stoichiometry N [5]	stoichiometry N [6]
FHA domain (residues 5–135) of SLMAP (domain or fragment, human, UniProt Q14BN4 5-135, looked up, also called SLMAP (FHA); SLMAP FHA domain; source: E. coli BL21 (DE3) CodonPlus, purified) LAIFTCRPNSHPFQERHVYLDEPIKIGRSVARCRPAQNNATFDCKVLSRNHALVWFDHKTGKFYLQDTKSSNGTFINSQRLSRGSEESPPCEILSGDIIQFGVDVTENTRKVTHGCIVSTIKLFLPDGMEA	binds	binds	binds	binds	–	–	–
SLMAP CC1 (residues 167–226) (domain or fragment, human, UniProt Q14BN4 167-226, looked up, Homodimer within the 2:2 crystal complex; source: E. coli BL21 (DE3) CodonPlus, purified) QLSQYLQEALHREQMLEQKLATLQRLLAITQEASDTSWQALIDEDRLLSRLEVMGNQLQA	–	–	–	–	6.9	1 SIKE1 CC1 per SLMAP CC1 (2:2)	2
